The text below walks through data of PMC6748615.

Test [1] addresses biotinylated human FcRn (human) (UniProt P55899). The experiment in a line: FcRn affinity chromatography.
In test [2] the target is rat FcRn (rat) (UniProt P13599). The test can be described thus: SPR. (SPR reads the build-up and loss of mass on a sensor chip optically.)
The target in test [3] is biotinylated human FcRn (human) (UniProt P55899). The experiment in a line: SPR.
Test [4] concerns the target Human CD16a (FcγRIIIa-V158) (human) (UniProt P08637). The experiment in a line: SPR.
In test [5] the target is biotinylated human FcRn (human) (UniProt P55899). The experiment in a line: SPR. This is another data set of the same source.
Test [6] has the same target.
For test [7], the target named is biotinylated cynomolgus FcRn (cynomolgus) (UniProt Q8SPV9).
Chain of UniProt Q8SPV9 (Q8SPV9 24-297, chain 1 of 2): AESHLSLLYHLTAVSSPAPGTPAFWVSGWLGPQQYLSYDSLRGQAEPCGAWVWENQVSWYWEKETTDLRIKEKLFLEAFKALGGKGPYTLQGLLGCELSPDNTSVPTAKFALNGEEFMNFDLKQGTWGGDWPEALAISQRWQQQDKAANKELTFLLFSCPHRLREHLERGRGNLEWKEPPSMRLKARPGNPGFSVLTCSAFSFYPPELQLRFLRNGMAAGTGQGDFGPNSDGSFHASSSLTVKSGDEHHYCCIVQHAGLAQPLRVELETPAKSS
Chain of UniProt Q8SPV9 (Q8SPW0 21-119, chain 2 of 2, further chain): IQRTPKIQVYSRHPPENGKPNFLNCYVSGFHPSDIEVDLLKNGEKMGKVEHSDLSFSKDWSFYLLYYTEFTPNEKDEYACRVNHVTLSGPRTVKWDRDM
The target of test [8] is mAb1 N434Y. The experiment in a line: BLI. In general terms: In BLI a coated tip is dipped into the sample, and binding shifts an interference pattern.
Test [9] addresses mAb1 M252Y. The experiment in a line: BLI.
The target in test [10] is mAb1 N434F. The test can be described thus: BLI.

Like-named read-outs stand apart in the source and are kept apart here.

Chain of UniProt P55899 (P55899 24-297, chain 1 of 2): as the sequence (Q8SPV9 24-297, chain 1 of 2) above, with D39N, Q44E, S99G, G189S, N190S, M217L, T269S counted along it
Chain of UniProt P55899 (P61769 21-119, chain 2 of 2, further chain): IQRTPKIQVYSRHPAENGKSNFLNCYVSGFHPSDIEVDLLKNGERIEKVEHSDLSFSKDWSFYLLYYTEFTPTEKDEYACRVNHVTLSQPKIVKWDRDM

As a reminder, the Kd is the constant that tells how readily two partners part at equilibrium. A high value points to a looser complex. The term koff denotes the rate constant with which the complex falls apart. Low values mean slow dissociation, high ones fast dissociation. What is called kon is the rate constant with which the complex forms. mAb1 AAA (T307A/E380A/N434A) (antibody) yielded an elution pH in [1] of 7.94 pH. In test [2], the Kd was 77 nM and the steady state RU, pH 7.4 is 23.6 RU. Besides, in [3], the Kd was found to be 1780 nM; the koff came out at 0.144 s⁻¹; the kon is 83700 M⁻¹ s⁻¹; the steady state RU, pH 7.4 was found to be 13.9 RU. The affinity fold change vs WT in test [4] was found to be 0.89 fold.

As for mAb1 E380C (antibody), the elution pH in [1] was found to be 7.18 pH. For the same molecule, the Kd in [2] was 6310 nM.

In the case of mAb1 K288D (antibody), the elution pH in test [1] amounted to 7.33 pH. The same molecule returned a Kd in [2] of 149 nM.

With mAb1 K288N (antibody), the elution pH in test [1] amounted to 7.39 pH. The Kd in [2] amounted to 190 nM.

mAb1 LS (M428L/N434S) (antibody) came in with an elution pH in [1] of 8.29 pH. In [5], the steady state RU, pH 7.4 is 18.5 RU. In addition, in test [2], the Kd worked out at 74 nM and the steady state RU, pH 7.4 stood at 24.8 RU. In test [3], the Kd amounted to 272 nM; the koff came out at 0.052 s⁻¹; the kon was determined as 193000 M⁻¹ s⁻¹; the steady state RU, pH 7.4 stood at 18.3 RU. The affinity fold change vs WT in test [4] stood at 1.04 fold.

The molecule mAb1 M252Y (antibody) had an elution pH in test [1] of 7.88 pH. Further, the results for the Kd in [2] and in test [3] were 25 nM and 3100 nM, respectively.

Consider mAb1 MDQN (DQ: T256D/T307Q) (antibody), for which, in [1], the elution pH was 7.92 pH. Besides, in test [2], the Kd is 9.54 nM and the steady state RU, pH 7.4 was determined as 39.1 RU. In test [3], this molecule displayed a dissociation constant Kd of 232 nM; a koff of 0.872 s⁻¹; a kon of 37600 M⁻¹ s⁻¹; a steady state RU, pH 7.4 of 10.7 RU. Further, the steady state RU in [4] is 103 RU.

As for mAb1 MDWN (DW: T256D/T307W) (antibody), the elution pH in test [1] turned out to be 7.92 pH. In [2], this molecule yielded a Kd of 8.24 nM and a steady state RU, pH 7.4 of 42.1 RU. Further, in test [3], the Kd worked out at 169 nM; the koff was determined as 0.892 s⁻¹; the kon was determined as 52900 M⁻¹ s⁻¹; the steady state RU, pH 7.4 was 12.2 RU. In test [4], this molecule showed a steady state RU of 126 RU.

In test [2], mAb1 N434F (antibody) returned a Kd of 26 nM and a steady state RU, pH 7.4 of 54.9 RU. In [3], this molecule had a Kd of 165 nM and a steady state RU, pH 7.4 of 20.1 RU.

In test [1], mAb1 N434P (antibody) came in with an elution pH of 7.56 pH. For the same molecule, in [2], the Kd amounted to 194 nM.

In turn, mAb1 N434Y (antibody) had an elution pH in test [1] of 8.46 pH. In test [2], this molecule showed a dissociation constant Kd of 23 nM and a steady state RU, pH 7.4 of 47 RU. In test [3], this molecule had a Kd of 137 nM; a koff of 0.052 s⁻¹; a kon of 359000 M⁻¹ s⁻¹; a steady state RU, pH 7.4 of 22.6 RU. The affinity fold change vs WT in test [4] worked out at 1.41 fold.

In turn, mAb1 T256D (antibody) had an elution pH in test [1] of 7.82 pH. Also, the Kd in test [2] stood at 86 nM; in test [3], 6700 nM.

In test [1], mAb1 T256E (antibody) came in with an elution pH of 7.63 pH. This molecule also registered a Kd in [2] of 113 nM.

On to mAb1 T307A (antibody), for which the elution pH in [1] stood at 7.61 pH. Besides, the equilibrium dissociation constant (Kd) in test [2] came out at 132 nM.

In test [1], mAb1 T307E (antibody) showed an elution pH of 7.58 pH. This molecule also showed a Kd in [2] of 141 nM. Also, in test [3], the Kd is 8130 nM, the koff was found to be 0.298 s⁻¹ and the kon stood at 43700 M⁻¹ s⁻¹.

For the molecule mAb1 T307F (antibody), the elution pH in test [1] amounted to 7.61 pH. In addition, the Kd in test [2] came out at 131 nM.

Turning to mAb1 T307M (antibody), in test [1], the elution pH was determined as 7.4 pH. Moreover, the Kd in test [2] was determined as 279 nM.

In the case of mAb1 T307Q (antibody), in [1], the elution pH is 7.86 pH. In addition, the Kd in test [2] is 58 nM. In test [3], the Kd worked out at 5720 nM, the koff is 0.215 s⁻¹ and the kon is 39600 M⁻¹ s⁻¹. Moreover, in [4], the affinity fold change vs WT stood at 1 fold.

For the molecule mAb1 T307W (antibody), the elution pH in [1] was determined as 7.75 pH. Besides, the values for the Kd in test [2] and in test [3] were 111 nM and 8740 nM, respectively.

In [1], mAb1 WT (model IgG1) (antibody) displayed an elution pH of 7.37 pH. This molecule also returned a Kd in [2] of 207 nM. In test [3], this molecule yielded an equilibrium dissociation constant (Kd) of 2380 nM, a koff of 0.386 s⁻¹ and a kon of 162000 M⁻¹ s⁻¹. Besides, in test [4], the affinity fold change vs WT is 1 fold.

In turn, mAb1 Y436H (antibody) yielded an elution pH in test [1] of 7.33 pH. Moreover, the Kd in test [2] was 131 nM.

In test [1], mAb1 Y436N (antibody) registered an elution pH of 7.22 pH. The molecule also registered a Kd in [2] of 233 nM.

As for mAb1 Y436W (antibody), in test [1], the elution pH is 7.39 pH. Further, the Kd in test [2] came out at 1140 nM.

With “mAb1 YDQN (M252Y/T256D/T307Q) (antibody)”, in test [1], the elution pH was 8.51 pH. In [2], this molecule displayed a Kd of 5.12 nM and a steady state RU, pH 7.4 of 65.2 RU. In addition, in [3], the Kd turned out to be 115 nM; the koff was 0.282 s⁻¹; the kon turned out to be 24600 M⁻¹ s⁻¹; the steady state RU, pH 7.4 is 19.8 RU. The same molecule registered a steady state RU in test [4] of 59.2 RU.

Consider mAb1 YDTN (YD: M252Y/T256D) (antibody), for which, in test [1], the elution pH amounted to 8.29 pH. In [2], the Kd was 5.86 nM and the steady state RU, pH 7.4 came to 56 RU. In test [3], this molecule showed a Kd of 93.6 nM; a koff of 0.593 s⁻¹; a kon of 63300 M⁻¹ s⁻¹; a steady state RU, pH 7.4 of 9.7 RU. In [4], this molecule came in with a steady state RU of 67.7 RU.

Molecule “mAb1 YEQN (M252Y/T256E/T307Q) (antibody)” registered an elution pH in [1] of 8.12 pH. Moreover, in [2], the Kd turned out to be 7.76 nM and the steady state RU, pH 7.4 turned out to be 61.8 RU. Moreover, in test [3], the Kd worked out at 218 nM; the koff came to 0.405 s⁻¹; the kon turned out to be 18500 M⁻¹ s⁻¹; the steady state RU, pH 7.4 was determined as 15.2 RU. The steady state RU in [4] amounted to 43.5 RU.

Consider mAb1 YETN (M252Y/T256E) (antibody), for which, in test [1], the elution pH is 7.83 pH. In test [2], this molecule came in with a Kd of 8.43 nM and a steady state RU, pH 7.4 of 55.1 RU. In test [3], this molecule had a Kd of 128 nM; a koff of 0.757 s⁻¹; a kon of 59200 M⁻¹ s⁻¹; a steady state RU, pH 7.4 of 9.8 RU. Moreover, the steady state RU in test [4] is 58.5 RU.

In turn, mAb1 YTE (M252Y/S254T/T256E) (antibody) gave an elution pH in [1] of 8.14 pH. This molecule also came in with a steady state RU, pH 7.4 in [5] of 13.1 RU. This molecule also registered a steady state RU, pH 7.4 in test [2] of 53.9 RU. Besides, in test [3], the Kd came to 342 nM; the kon was 143000 M⁻¹ s⁻¹; the steady state RU, pH 7.4 is 13.2 RU. In addition, the affinity fold change vs WT in test [4] was 0.52 fold.

As to mAb1 YTWN (M252Y/T307W) (antibody), the elution pH in test [1] turned out to be 8.14 pH. In addition, in test [2], the Kd was found to be 5.21 nM and the steady state RU, pH 7.4 was found to be 66.1 RU. Further, in test [3], the Kd is 118 nM; the kon worked out at 48300 M⁻¹ s⁻¹; the steady state RU, pH 7.4 came to 15.9 RU. Besides, the steady state RU in test [4] stood at 67.5 RU.

Consider mAb2 DQ (T256D/T307Q) (antibody), for which the plasma elimination half-life t1/2 in hFcRn Tg32 transgenic mice, 2.5 mg/kg i.v. in test [6] was 24.5 days.

Regarding mAb2 DW (T256D/T307W) (antibody), the plasma elimination half-life t1/2 in cynomolgus monkeys, 2.5 mg/kg i.v. in test [7] amounted to 20.4 days. The plasma elimination half-life t1/2 in hFcRn Tg32 transgenic mice, 2.5 mg/kg i.v. in [6] was 20.1 days.

In the case of mAb2 YD (M252Y/T256D) (antibody), the plasma elimination half-life t1/2 in cynomolgus monkeys, 2.5 mg/kg i.v. in test [7] was determined as 23.5 days. Further, in test [6], the plasma elimination half-life t1/2 in hFcRn Tg32 transgenic mice, 2.5 mg/kg i.v. was determined as 17.5 days.

B1: rat FcRn (receptor)
chain 1: AEPRLPLMYHLAAVSDLSTGLPSFWATGWLGAQQYLTYNNLRQEADPCGAWIWENQVSWYWEKETTDLKSKEQLFLEAIRTLENQINGTFTLQGLLGCELAPDNSSLPTAVFALNGEEFMRFNPRTGNWSGEWPETDIVGNLWMKQPEAARKESEFLLTSCPERLLGHLERGRQNLEWKEPPSMRLKARPGNSGSSVLTCAAFSFYPPELKFRFLRNGLASGSGNCSTGPNGDGSFHAWSLLEVKRGDEHHYQCQVEHEGLAQPLTVDLDSPARSS
chain 2: IQKTPQIQVYSRHPPENGKPNFLNCYVSQFHPPQIEIELLKNGKKIPNIEMSDLSFSKDWSFYILAHTEFTPTETDVYACRVKHVTLKEPKTVTWDRDM
B1: the fold slower off rate than WT in [8], in test [9] and in test [10] was greater than 1.8 fold in each case.
